The text below walks through data of article PMC13370731.

Assay [1] concerns the target soluble domain of the MtrA subunit (M1 – S168), strep‐tagged, RED‐labeled (Methanosarcina mazei Gö1) (UniProt O59640). The assay can be described thus: MST; 20 nM RED‐labeled strep‐MtrA with MtrR‐His6 in 16 concentrations (calculated on monomeric molecular mass); standard capillaries, 100% excitation power, medium MST power; MO.AFFINITY analysis; two biological replicates.

The target in assay [2] is MtrR‐His6 (small protein MtrR with a C‐terminal His‐tag, heterologously expressed in Escherichia coli) (Methanosarcina mazei Gö1). The assay can be described thus: SEC; IMAC‐purified MtrR‐His6 on an Enrich SEC 70 column, detection at 214 nm, calibrated with a standard protein mixture; phosphate buffer (50 mM sodium phosphate, 300 mM NaCl, pH 8.0); peaks at 10 and 13 mL. In general terms: In gel filtration, larger molecules generally elute earlier.

pKd: −log10 of the molar value. Values joined by “and” are separate entries in the source; they are usually repeats but may differ in a detail not shown here. Identical values can stand only once.

Chain of UniProt O59640 (O59640 1-168): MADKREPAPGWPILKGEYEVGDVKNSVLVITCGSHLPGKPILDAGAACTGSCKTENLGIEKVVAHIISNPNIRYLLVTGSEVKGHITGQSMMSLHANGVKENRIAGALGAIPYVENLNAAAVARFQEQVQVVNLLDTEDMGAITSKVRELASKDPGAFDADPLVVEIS

The term pKd denotes the Kd on a negative log10 scale, so that one unit is a factor of ten. Usually stoichiometry N stands for a count of units in the complex or per binding partner. With “MtrR‐His6 (small protein MtrR with a C‐terminal His‐tag, heterologously expressed in Escherichia coli) (natural protein)”, the pKd in assay [1] was 6.96. For the same substance, in assay [2], the stoichiometry N is 2 and < 6.
